Measured values taken from article PMC3245944 (Nucleic Acids Research, 2011).
Residue numbers refer to the chain shown, from its start. Read-outs that look alike come from different tables or passages of the source.

T1: GST-tagged Mgs1* (D31A) (S. cerevisiae, UniProt P40151 1-587, D31A)
T1 sequence: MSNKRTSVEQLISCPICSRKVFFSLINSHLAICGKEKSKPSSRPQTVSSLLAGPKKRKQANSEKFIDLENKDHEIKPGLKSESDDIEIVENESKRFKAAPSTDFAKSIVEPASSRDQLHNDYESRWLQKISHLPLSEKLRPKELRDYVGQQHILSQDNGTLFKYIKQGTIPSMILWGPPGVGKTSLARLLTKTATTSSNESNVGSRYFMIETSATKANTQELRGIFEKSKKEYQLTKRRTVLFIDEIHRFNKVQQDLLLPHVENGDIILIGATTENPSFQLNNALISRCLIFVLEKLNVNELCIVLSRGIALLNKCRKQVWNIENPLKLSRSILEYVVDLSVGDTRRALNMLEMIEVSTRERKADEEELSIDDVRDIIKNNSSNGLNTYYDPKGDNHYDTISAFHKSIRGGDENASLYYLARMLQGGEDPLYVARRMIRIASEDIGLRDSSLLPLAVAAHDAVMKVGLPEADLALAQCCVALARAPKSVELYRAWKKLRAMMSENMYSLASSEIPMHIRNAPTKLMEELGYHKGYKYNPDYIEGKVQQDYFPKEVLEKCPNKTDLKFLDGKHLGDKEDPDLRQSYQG

T2: GST-tagged Mgs1 (S. cerevisiae, UniProt P40151 1-587)
T2 sequence: T1 sequence with A31D

B1: His6-tagged PCNA (natural protein)
chain: MLEAKFEEASLFKRIIDGFKDCVQLVNFQCKEDGIIAQAVDDSRVLLVSLEIGVEAFQEYRCDHPVTLGMDLTSLSKILRCGNNTDTLTLIADNTPDSIILLFEDTKKDRIAEYSLKLMDIDADFLKIEELQYDSTLSLPSSEFSKIVRDLSQLSDSINIMITKETIKFVADGDIGSGSVIIKPFVDMEHPETSIKLEMDQPVDLTFGAKYLLDIIKGSSLSDRVGIRLSSEAPALFQFDLKSGFLQFFLAPKFNDEE
B2: untagged PCNA (unmodified) (natural protein)
chain: B1 chain

Experiments:
Experiment in all cases: pull-down
[1] = biological target: T1, GST-tagged Mgs1* (D31A)
[2] = biological target: T2, GST-tagged Mgs1
[3] = biological target: T1, GST-tagged Mgs1* (D31A); remark: listed apart in the source
[4] = biological target: T2, GST-tagged Mgs1; remark: listed apart in the source

Row | Binder | binding result [1] | binding result [2] | binding result [3] | binding result [4]
1 | B1 | binds | binds | – | –
2 | B2 | – | – | binds | binds
